Values joined by “and” are separate entries in the source; they are usually repeats but may differ in a detail not shown here. Identical values can stand only once.

The target in assay [1] is PscA, 82-kDa core subunit of the green sulfur bacterial reaction center (GsbRC) (Chlorobaculum tepidum TLS). As to the kind of experiment: cryo-EM structure.
For assay [2], the target named is reaction center of the green sulfur bacterium Chlorobaculum tepidum (GsbRC) (Chlorobaculum tepidum TLS) (UniProt O07091).
Assay [3] deals with T1, Fenna–Matthews–Olson (FMO) protein (Chlorobaculum tepidum TLS, UniProt Q46393 1-366).
T1 sequence (looked up): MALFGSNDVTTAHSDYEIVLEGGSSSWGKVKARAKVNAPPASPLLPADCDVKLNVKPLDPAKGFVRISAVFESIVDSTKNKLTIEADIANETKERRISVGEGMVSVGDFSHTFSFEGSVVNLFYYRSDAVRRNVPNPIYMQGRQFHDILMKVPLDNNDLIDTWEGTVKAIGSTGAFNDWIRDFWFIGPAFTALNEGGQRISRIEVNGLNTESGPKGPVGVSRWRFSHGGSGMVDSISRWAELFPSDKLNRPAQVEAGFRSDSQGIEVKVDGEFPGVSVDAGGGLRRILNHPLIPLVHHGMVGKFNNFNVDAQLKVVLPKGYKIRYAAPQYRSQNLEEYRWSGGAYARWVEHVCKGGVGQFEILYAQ
In words: cryo-EM structure.

For orientation: stoichiometry N means a count of units in the complex or per binding partner. In turn, “PscA, 82-kDa core subunit of the green sulfur bacterial reaction center (GsbRC) (natural protein)” showed a stoichiometry N in assay [1] of 2.

B1: Fenna–Matthews–Olson (FMO) protein (natural protein)
chain: T1 sequence (looked up)
With B1, the stoichiometry N in assay [2] is 2 and 1.

B2: PscD, 17-kDa protein of GsbRC (natural protein, Chlorobaculum tepidum TLS, UniProt Q8KEP5 1-143, looked up)
chain: MQPQLSRPQTASNQVRKAVSGPWSGNAVHKAEKYFITSAKRDRDGKLQIELVPASGRRKLSPTPEMIRRLIDGEIEIYILTTQPDIAIDMNKEIIDMENRYVIDFDKRGVKWTMREIPVFYHEGKGLCVELHNKIYTLDQFFK
As for B2, in assay [3], the binding result is “binds”.

Values taken from paper PMC9945994 (Proceedings of the National Academy of Sciences of the …, 2023).
